The source of these data is patent US20260274985A1 (MYTHIC THERAPEUTICS, published 2026).

Changes are numbered by the printed parent chain.

T1: Human TROP2 Protein, His Tag (Acro Biosystems) (human, UniProt P09758 27-274)
T1 construct: Bought protein; not shown: His tag
T1 sequence (looked up): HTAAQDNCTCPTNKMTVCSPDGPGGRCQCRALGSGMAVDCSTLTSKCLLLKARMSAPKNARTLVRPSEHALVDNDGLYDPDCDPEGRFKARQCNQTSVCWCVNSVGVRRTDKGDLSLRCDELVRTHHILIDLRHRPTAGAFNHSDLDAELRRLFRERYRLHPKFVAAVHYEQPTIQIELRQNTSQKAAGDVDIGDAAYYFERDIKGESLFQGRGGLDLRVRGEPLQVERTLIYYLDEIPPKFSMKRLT

T2: Human TROP2 Protein, His Tag (Acro Biosystems) (human, UniProt P09758 27-274)
T2 construct: not shown: His tag
T2 sequence (looked up): T1 sequence (looked up)

B1: MYT11567 (antibody, V domains shown)
VH: QVQLQQSGSELKKPGASVKVSCKASHYTFTNYGMNWVKQAPGQGLKWMGWINTYTGEPTYTDDFKGRFAFSLDTSVSTAYLQISSLKADDTAVYFCARGGFGSSYWYFDVWGQGSLVTVSS
VL: DIQLTQSPSSLSASVGDRVSITCKASQDVSIAVAWYQQKPGKAPKLLIYSASYRYTGVPDRFSGSGSGTDFTLTISSLQPEDFAVYYCQQHYITPLTFGAGTKVEIK
notes: Sacituzumab variant, His at HCV position 26 (H1 01)
B2: MYT11576 (antibody, V domains shown)
VH: B1 VH with H26G, N35H
VL: B1 VL
notes: Sacituzumab variant, His at HCV position 35 (H1 10)
B3: MYT11577 (antibody, V domains shown)
VH: B1 VH with H26G, W50H
VL: B1 VL
B4: MYT11585 (antibody, V domains shown)
VH: B1 VH with H26G, P58H
VL: B1 VL
notes: Sacituzumab variant, His at HCV position 58 (H2 09)
B5: MYT11580 (antibody, V domains shown)
VH: B1 VH with H26G, T53H
VL: B1 VL
notes: Sacituzumab variant, His at HCV position 53 (H2 04)
B6: MYT11581 (antibody, V domains shown)
VH: B1 VH with H26G, Y54H
VL: B1 VL
notes: Sacituzumab variant, His at HCV position 54 (H2 05)
B7: MYT11572 (antibody, V domains shown)
VH: B1 VH with H26G, N31H
VL: B1 VL
notes: Sacituzumab variant, His at HCV position 31 (H1 06)
B8: MYT11582 (antibody, V domains shown)
VH: B1 VH with H26G, T55H
VL: B1 VL
notes: Sacituzumab variant, His at HCV position 55 (H2 06)
B9: MYT11584 (antibody, V domains shown)
VH: B1 VH with H26G, E57H
VL: B1 VL
notes: Sacituzumab variant, His at HCV position 57 (H2 08)
B10: MYT11573 (antibody, V domains shown)
VH: B1 VH with H26G, Y32H
VL: B1 VL
B11: MYT11571 (antibody, V domains shown)
VH: B1 VH with H26G, T30H
VL: B1 VL
notes: Sacituzumab variant, His at HCV position 30 (H1 05)
B12: MYT11574 (antibody, V domains shown)
VH: B1 VH with H26G, G33H
VL: B1 VL
B13: MYT11586 (antibody, V domains shown)
VH: B1 VH with H26G, T59H
VL: B1 VL
notes: Sacituzumab variant, His at HCV position 59 (H2 10)
B14: MYT11569 (antibody, V domains shown)
VH: B1 VH with H26G, T28H
VL: B1 VL
notes: Sacituzumab variant, His at HCV position 28 (H1 03)
B15: MYT11587 (antibody, V domains shown)
VH: B1 VH with H26G, Y60H
VL: B1 VL
B16: MYT11579 (antibody, V domains shown)
VH: B1 VH with H26G, N52H
VL: B1 VL
notes: Sacituzumab variant, His at HCV position 52 (H2 03)
B17: MYT11578 (antibody, V domains shown)
VH: B1 VH with H26G, I51H
VL: B1 VL
notes: Sacituzumab variant, His at HCV position 51 (H2 02)
B18: MYT11568 (antibody, V domains shown)
VH: B1 VH with H26G, Y27H
VL: B1 VL
notes: Sacituzumab variant, His at HCV position 27 (H1 02)
B19: MYT11575 (antibody, V domains shown)
VH: B1 VH with H26G, M34H
VL: B1 VL
notes: Sacituzumab variant, His at HCV position 34 (H1 09)
B20: MYT11570 (antibody, V domains shown)
VH: B1 VH with H26G, F29H
VL: B1 VL
notes: Sacituzumab variant, His at HCV position 29 (H1 04)
B21: MYT13283 (antibody, V domains shown)
VH: QVQLQESGPGLVKPSETLSLTCTVSGGSISSYGVHWIRQPPGKGLEWIGVIWTSGVTDYNSALMGRVTISVDTSKNQFSLKLSSVTAADTAVYYCARDGDYHRYTMDYWGQGTLVTVSS
VL: DIVMTQSPDSLAVSLGERATINCRASKSVSTSGYSYMHWYQQKPGQPPKLLIYLASNLEHGVPDRFSGSGSGTDFTLTISSLQAEDVAVYYCQHSRELPYTFGQGTKLEIK
notes: Full-length IgG; also called h7E6SVG HC-LC pairing variant
B22: MYT13290 (antibody, V domains shown)
VH: B21 VH with H102D, M106H
VL: B21 VL with H60S, Q93H
notes: as for B21
B23: MYT11691 (antibody, V domains shown)
VH: QVQLVQSGAEVKKPGASVKVSCKASGYTFTTAGMQWVRQAPGQGLEWMGWINTHSGVPKYAEDFKGRVTISADTSTSTAYLQLSSLKSEDTAVYYCARSGFGSSYWYFDVWGQGTLVTVSS
VL: B1 VL with L4M, S20T, I31T, Y53H, D60S, A100Q, V104L
notes: IgG; also called Datopotamab LC variant
B24: MYT13265 (antibody, V domains shown)
VH: B23 VH with R98H
VL: B1 VL with L4M, S20T, I31T, Y53H, D60S, A100Q, V104L
notes: Full-length IgG; also called Datopotamab HC-LC pairing variant
B25: MYT13433 (antibody, V domains shown)
VH: B1 VH with H26G, D62H
VL: B1 VL with A51H, Y53H, I93H
notes: IgG; also called Sacituzumab HC-LC pairing variant
B26: MYT13424 (antibody, V domains shown)
VH: B1 VH with H26G, Y60H
VL: B1 VL with S30H, A51H, I93H
notes: as for B25
B27: MYT13368 (antibody, V domains shown)
VH: B1 VH with H26G, Y60H
VL: B1 VL with S30H, V33H
notes: as for B25
B28: MYT13160 (antibody, V domains shown)
VH: B1 VH with H26G, Y32H
VL: B1 VL with S30H
notes: as for B25
B29: MYT13429 (antibody, V domains shown)
VH: B1 VH with H26G, G66H
VL: B1 VL with S30H, A51H, I93H
notes: as for B25
B30: MYT13426 (antibody, V domains shown)
VH: B1 VH with H26G, D63H
VL: B1 VL with S30H, A51H, I93H
notes: as for B25
B31: MYT11690 (antibody, V domains shown)
VH: B23 VH
VL: B1 VL with L4M, S20T, I31T, S52H, D60S, A100Q, V104L
notes: as for B23

The target in one experiment is T1, Human TROP2 Protein, His Tag (Acro …). In words: BLI (Octet). The method, then: After allowing for four days of protein expression, cell culture supernatants were collected, quantified by SDS-PAGE analysis (DNS), and the pH dependence of the variant was evaluated using biolayer interferometry (BLI) on an Octet RED 96e instrument. Briefly, cell culture supernatants were diluted based on qualitative expression level of the variant determined by visual examination of SDS-PAGE gels, 5 μL of cell culture supernatant was diluted into 195 μL of 1×PBST, pH 7.4 for high expressors, 25 μL of cell culture supernatant was diluted into 175 μL of 1×PBST, pH 7.4 for medium expressors and 100 μL of cell culture supernatant was diluted into 100 μL of 1×PBST, pH 7.4 for low expressors for loading onto the sensor tips. The resulting diluted supernatants were then captured on an anti-human Fc sensor (Forte Bio). A baseline was established using 1×PBST (50 mM Potassium Phosphate Buffer+150 mM NaCl+0.05% Tween 20) pH 7.4, and the sensor was associated with 50 nM of TROP2 (Human TROP2 Protein, His Tag, Acro Biosystems) in 1×PBST pH 7.4 for 120 sec to generate an association curve. In the dissociation phase, the antibody-antigen complex on the sensor was exposed to 1×PBST pH 7.4 or pH 5.4, for 300 sec. Association and dissociation phase curves were examined for the starting ABPC antibody (with no substitutions) and each corresponding antibody variant at pH 5.4 and pH 7.4 to inform on two criteria: a) enhanced dissociation (i.e., higher koff values) at pH 5.4 due to histidine or alanine substitution compared to the starting ABPC, (with no substitutions), and b) reduced dissociation at pH 7.4 (i.e., lower koff values) compared to pH 5.4 in the antibody variant itself and with the starting ABPC (with no substitutions). […] It was also noted that while some mutations obliterated TROP2 binding, others were tolerated with little or n change in TROP2 binding kinetics.
(In general: BLI is a label-free optical method that tracks binding on a fibre tip over time.)
On to B1, for which the binding result is on record as “binds”.
As for B2, the binding result is on record as “binds”.
With B3, the binding result is recorded as “binds”.
On to B4, for which the binding result was “binds”.
The same measure, in the same setting: then B5, with “binds”; and B6, with “binds”; and B7, with “binds”.
Same read-out and setting: then B8, with “binds”; and B9, with “binds”.
For B10, the binding result is “binds”.
The same measure, in the same setting: to B11 belongs “binds”; to B12, “binds”.
Consider B13, for which the binding result was “binds”.
On to B14, for which the binding result was “binds”.
With B15, the binding result is recorded as “binds”.
Regarding B16, the binding result is on record as “binds”.
Same read-out and setting: then B17, with “binds”; and B18, with “binds”; and B19, with “binds”.
Still for that read-out and setting: then B20, with “binds”.

The next experiment concerns the target T2, Human TROP2 Protein, His Tag (Acro …). The experiment is described as follows: Octet (BLI); antigen and pH not given.
By Kd is commonly meant the concentration at which binding is half-saturated. B21: the Kd amounted to 5.32 nM and the “Octet response at 33.33 nM (Y-Axis) nm” value was determined as 0.108 nm.
For the molecule B22, the Kd was 7.45 nM and the “Octet response at 33.33 nM (Y-Axis) nm” value was 0.103 nm.
In the same order, the values of B23 are 6.03 nM and 0.0719 nm.
For B24 the same measures were 9.5 nM and 0.0712 nm.
On to B25, for which the affinity, expressed as Kd, was 4.36 nM and the “Octet response at 33.33 nM (Y-Axis) nm” value amounted to 0.12 nm.
Regarding B26, the affinity, expressed as Kd, was 1.97 nM and the “Octet response at 33.33 nM (Y-Axis) nm” value came out at 0.123 nm.
In the same order, the values of B27 are 1.03 nM and 0.14 nm.
In the same order, the values of B28 are 0.009 nM and 0.077 nm.
In the same order, the values of B29 are 2.85 nM and 0.122 nm.
For B30, binding was put at a Kd of 1.51 nM and the “Octet response at 33.33 nM (Y-Axis) nm” value was determined as 0.132 nm.
As to B31, the affinity, expressed as Kd, was 3.4 nM and the “Octet response at 33.33 nM (Y-Axis) nm” value is 0.0911 nm.
